Experimental data published in publication PMC3093129 (Biochemistry, 2011).

Molecular target: the molecule itself
Assay: AUC

B1: Liprin-β2 coiled-coil mutant C145S (complete coiled-coil construct, residues S100 through E315) (domain or fragment, human)
chain: MEKTRSAASNETYQERLARLEGDKESLILQVSVLTDQVEAQGEKIRDLEVSLEGHQVKLNAAEEMLQQELLSRTSLETQKLDLMTEVSELKLKLVGMEKEQREQEEKQRKAEELLQELRHLKIKVEELENERNQYEWKLKATKAEVAQLQEQVALKDAEIERLHSQLSRTAALHSESHTERDQEIQRLKMGMETLLLANEDKDRRIEELTGLLNQYRKVKE
- stoichiometry N: 2
